Earlier results in article PMC11442857.

Biological target: Bovine serum albumin, fatty-acid-free (FAF-BSA) (UniProt P02769)
Experiment: Analytical ultracentrifugation, sedimentation equilibrium
Details: pH 7.2, 10 °C, PBS (concentration not stated)

Chain of UniProt P02769 (P02769 whole entry): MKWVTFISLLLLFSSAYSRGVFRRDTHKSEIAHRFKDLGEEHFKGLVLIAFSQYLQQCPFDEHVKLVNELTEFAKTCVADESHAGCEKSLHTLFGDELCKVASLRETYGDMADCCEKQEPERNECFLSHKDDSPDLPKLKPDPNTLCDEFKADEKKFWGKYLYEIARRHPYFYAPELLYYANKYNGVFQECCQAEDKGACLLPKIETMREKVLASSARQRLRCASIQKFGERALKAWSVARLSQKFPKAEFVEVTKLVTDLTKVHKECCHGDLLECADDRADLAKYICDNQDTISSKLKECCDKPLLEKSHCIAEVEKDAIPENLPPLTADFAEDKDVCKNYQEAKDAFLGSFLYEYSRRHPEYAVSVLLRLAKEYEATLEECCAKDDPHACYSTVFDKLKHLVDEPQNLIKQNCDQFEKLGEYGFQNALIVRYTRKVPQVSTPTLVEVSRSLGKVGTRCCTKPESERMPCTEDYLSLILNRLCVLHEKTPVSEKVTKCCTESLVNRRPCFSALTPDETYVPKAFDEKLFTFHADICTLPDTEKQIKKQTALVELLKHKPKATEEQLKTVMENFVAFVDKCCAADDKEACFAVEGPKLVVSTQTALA

Bovine serum albumin, fatty-acid-free (FAF-BSA)
Kd dimer: 4.5 mM
